From paper PMC7349057

How the values were obtained:
[1] = cell surface biotinylation, VEGFR2 western blot, hEMCN knockdown HRECs; conditions: glycan lost; control: ∆21-121 EMCN
[2] = immunocytochemistry of internalised VEGFR2, BSA vs VEGF; conditions: glycan lost; control: ∆21-121 EMCN

B1: mouse EMCN (mEMCN, endomucin): N-Mut (protein)
parent chain: MRLLQATVLFFLLSNSLCHSEDGKDVQNDSIPTPAETSTTKASVTIPGIVSVTNPNKPADGTPPEGTTKSDVSQTSLVTTINSLTTPKHEVGTTTEGPLRNESSTMKITVPNTPTSNANSTLPGSQNKTENQSSIRTTEISVTTQLLDALPKITATSSASLTTAHTMSLLQDTEDRKIATTPSTTPSYSSIILPVVIALVVITLLVFTLVGLYRICWKRDPGTPENGNDQPQSDKESVKLLTVKTISHESGEHSAQGKTKN
- other: rescue of VEGF-induced VEGFR2 internalisation [1]: abolishes
- other: rescue of VEGF-induced VEGFR2 internalisation, other: VEGFR2-positive pixels per cell [2]: abolishes
